The values that follow come from patent US20200369765A1 (INNATE PHARMA, published 2020).

A word on the Kd: it is the concentration at which binding is half-saturated. A higher Kd goes with weaker binding. Broadly, the koff is a measure of how fast the partners let go of each other. A higher koff goes with a short-lived complex. The EC50 is the concentration giving half of the maximal effect. A lower EC50 goes with greater potency.

Numbering of substitutions follows the chain as printed.

One assay has as its target T1, Human Siglec-9 mutant M7 (human, UniProt Q9Y336 18-463).
T1 construct: Expressed on HEK293T cells; also called Mutant 7
Briefly: flow cytometry, HEK293T transfectants.

In the next assay the target is T2, Human Siglec-9 mutant M2 (human, UniProt Q9Y336 18-463).
T2 construct: Expressed on HEK293T cells; also called Mutant 2
T2 sequence (Q9Y336 other isoform, or with tags, fused parts or gaps mutant): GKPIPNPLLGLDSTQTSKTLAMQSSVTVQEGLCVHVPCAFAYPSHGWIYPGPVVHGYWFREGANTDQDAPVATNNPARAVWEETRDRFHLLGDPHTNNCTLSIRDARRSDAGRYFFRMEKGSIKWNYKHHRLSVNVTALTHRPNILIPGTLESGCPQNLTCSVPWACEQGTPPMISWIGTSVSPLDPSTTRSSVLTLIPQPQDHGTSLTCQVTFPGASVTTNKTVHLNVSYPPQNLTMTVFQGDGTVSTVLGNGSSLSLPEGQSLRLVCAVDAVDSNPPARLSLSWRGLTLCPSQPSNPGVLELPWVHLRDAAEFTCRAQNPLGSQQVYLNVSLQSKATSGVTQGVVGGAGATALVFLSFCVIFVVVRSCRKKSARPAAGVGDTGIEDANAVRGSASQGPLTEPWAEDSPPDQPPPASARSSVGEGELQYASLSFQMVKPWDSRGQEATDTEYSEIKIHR
Put plainly: flow cytometry, HEK293T transfectants. (Flow cytometry measures light scatter and fluorescence of single cells or particles in a stream.)

The target in a further assay is T3, Human Siglec-9 mutant M5 (human, UniProt Q9Y336 18-463).
T3 construct: Expressed on HEK293T cells; also called Mutant 5
T3 sequence (Q9Y336 other isoform, or with tags, fused parts or gaps mutant): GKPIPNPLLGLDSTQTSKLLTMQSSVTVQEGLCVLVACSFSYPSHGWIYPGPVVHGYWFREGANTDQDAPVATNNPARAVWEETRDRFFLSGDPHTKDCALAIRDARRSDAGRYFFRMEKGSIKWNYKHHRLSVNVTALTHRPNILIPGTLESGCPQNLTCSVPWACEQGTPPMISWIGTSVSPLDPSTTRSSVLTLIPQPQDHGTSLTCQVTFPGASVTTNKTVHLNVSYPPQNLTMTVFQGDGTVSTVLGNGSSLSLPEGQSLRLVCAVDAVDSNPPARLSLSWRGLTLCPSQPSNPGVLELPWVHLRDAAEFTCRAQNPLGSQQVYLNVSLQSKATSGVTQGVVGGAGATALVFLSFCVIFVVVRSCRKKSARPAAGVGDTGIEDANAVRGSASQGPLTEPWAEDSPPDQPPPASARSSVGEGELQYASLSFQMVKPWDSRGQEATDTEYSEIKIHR
Briefly: flow cytometry, HEK293T transfectants.

The target of another assay is T4, Human Siglec-9 mutant M6 (human, UniProt Q9Y336 18-463).
T4 construct: Expressed on HEK293T cells; also called Mutant 6
T4 sequence (Q9Y336 other isoform, or with tags, fused parts or gaps mutant): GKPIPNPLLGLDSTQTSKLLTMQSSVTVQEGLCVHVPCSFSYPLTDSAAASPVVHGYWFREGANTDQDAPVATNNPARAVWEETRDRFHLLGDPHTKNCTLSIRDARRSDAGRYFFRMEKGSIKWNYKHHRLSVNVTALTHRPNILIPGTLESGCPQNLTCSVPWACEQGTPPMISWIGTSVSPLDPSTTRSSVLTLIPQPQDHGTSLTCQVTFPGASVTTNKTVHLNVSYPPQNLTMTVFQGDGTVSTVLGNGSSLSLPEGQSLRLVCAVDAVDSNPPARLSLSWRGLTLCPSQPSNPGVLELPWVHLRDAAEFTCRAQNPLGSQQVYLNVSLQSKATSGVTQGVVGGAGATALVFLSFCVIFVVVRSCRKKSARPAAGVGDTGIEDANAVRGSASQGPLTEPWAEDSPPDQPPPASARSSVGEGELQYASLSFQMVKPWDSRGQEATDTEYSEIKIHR
Put plainly: flow cytometry, HEK293T transfectants.

Assay [1] addresses T5, Human Siglec-9 mutant M11 (human, UniProt Q9Y336 18-463).
T5 construct: Expressed on HEK293T cells; also called Mutant 11
Briefly: flow cytometry, HEK293T transfectants; '-' indicates full loss of binding.

A further assay deals with T6, Siglec-9 Fc protein (human).
T6 construct: Produced in CHO cells; also called human Siglec-9 Fc
T6 sequence (chain, as listed by the source limits assumed): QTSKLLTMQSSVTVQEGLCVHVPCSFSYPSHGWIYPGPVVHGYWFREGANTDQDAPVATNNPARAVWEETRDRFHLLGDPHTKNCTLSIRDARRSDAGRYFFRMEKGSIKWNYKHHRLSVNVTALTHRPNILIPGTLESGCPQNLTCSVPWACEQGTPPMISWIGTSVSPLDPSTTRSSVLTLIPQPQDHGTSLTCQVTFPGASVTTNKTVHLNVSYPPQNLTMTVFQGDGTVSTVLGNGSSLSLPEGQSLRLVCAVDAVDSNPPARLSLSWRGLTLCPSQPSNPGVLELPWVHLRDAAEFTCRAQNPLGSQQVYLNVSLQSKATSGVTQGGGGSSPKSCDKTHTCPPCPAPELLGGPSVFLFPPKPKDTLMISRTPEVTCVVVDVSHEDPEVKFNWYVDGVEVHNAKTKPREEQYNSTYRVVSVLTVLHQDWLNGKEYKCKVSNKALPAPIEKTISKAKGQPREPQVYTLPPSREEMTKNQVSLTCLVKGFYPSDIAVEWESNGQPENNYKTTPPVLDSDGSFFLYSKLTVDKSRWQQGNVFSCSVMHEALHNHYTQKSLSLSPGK
Briefly: SPR (Biacore T200), Fab over immobilized Siglec-9 Fc, 1:1 model. As for the experimental part:
(§1) SPR measurements were performed on a Biacore™ T200 apparatus (Biacore™ GE Healthcare) at 25° C. In all Biacore™ experiments HBS-EP+(Biacore™ GE Healthcare) and NaOH 10 mM served as running buffer and regeneration buffer respectively. Sensorgrams were analyzed with Biacore™ T200 Evaluation software. Human siglec-9 and -7 multimeric proteins were cloned, produced and purified at Innate Pharma.
(§2) Proteins were immobilized covalently to carboxyl groups in the dextran layer on a Sensor Chip CM5. The chip surface was activated with EDC/NHS (N-ethyl-N′-(3-dimethylaminopropyl) carbodiamide hydrochloride and N-hydroxysuccinimide (Biacore™ GE Healthcare). Proteins were diluted to 10 μg/ml in coupling buffer (10 mM acetate, pH 4.2 & 5.0) and injected until the appropriate immobilization level was reached (i.e., 600 to 2000RU). Deactivation of the remaining activated groups was performed using 100 mM ethanolamine pH 8 (Biacore™, GE Healthcare).
(§3) The affinity study was carried out according to a standard Kinetic protocol recommended by the manufacturer (Biacore™ GE Healthcare kinetic wizard). […] The entire sensorgram sets were fitted using the 1:1 kinetic binding model. Monovalent affinities and kinetic association and dissociation rate constants are shown below in Table 2 below.

Another assay deals with T7, Human Siglec-9 (human, UniProt Q9Y336 18-463).
T7 construct: On transfected CHO cells; also on YTS and KHYG-1 transfectants, primary NK cells and moDC; also called huSiglec-9; CD329
T7 sequence (Q9Y336 18-463): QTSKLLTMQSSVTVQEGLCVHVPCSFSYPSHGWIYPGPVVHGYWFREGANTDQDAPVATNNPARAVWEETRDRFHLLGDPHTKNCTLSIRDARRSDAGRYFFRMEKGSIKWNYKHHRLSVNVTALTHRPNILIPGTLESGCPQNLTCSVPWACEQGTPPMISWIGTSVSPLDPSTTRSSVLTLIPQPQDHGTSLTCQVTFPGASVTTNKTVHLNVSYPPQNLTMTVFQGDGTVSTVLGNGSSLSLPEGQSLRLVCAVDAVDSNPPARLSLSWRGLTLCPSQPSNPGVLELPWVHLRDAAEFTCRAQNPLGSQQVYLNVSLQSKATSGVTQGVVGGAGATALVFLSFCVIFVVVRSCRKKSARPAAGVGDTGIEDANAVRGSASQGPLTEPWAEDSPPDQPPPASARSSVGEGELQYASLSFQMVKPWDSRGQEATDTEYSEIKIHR
Put plainly: flow cytometry, CHO Siglec-9 cells, mean n = 2. The procedure:
Binding of humanized antibodies was tested on CHO cells transfected with human Siglec-9, in a titration experiment by flow cytometry. Cells were incubated 90 minutes at 37° C. in Staining Buffer (SB) with primary antibodies at 10 ug/ml and a series of dilution of 1:10. They were washed three times with SB, then incubated 30 minutes with a goat F(ab′)² Anti-human IgG (Fc) PE. EC₅₀ values (μg/ml) for Siglec-9 expressing cells are shown below.

A further assay has as its target T8, Siglec-7 Fc protein (human).
T8 construct: Produced in CHO cells; also called human Siglec-7 Fc
Put plainly: SPR (Biacore T200), Fab over immobilized Siglec-7 Fc, 1:1 model. The procedure:
as §1, §2, §3
Background: In SPR one partner is held on a chip, and binding of the other changes the refractive index at the surface.

A further assay has as its target T9, Human Siglec-9 mutant M8 (human, UniProt Q9Y336 18-463).
T9 construct: Expressed on HEK293T cells; also called Mutant 8
Put plainly: flow cytometry, HEK293T transfectants.

T8 sequence (chain, as listed by the source limits assumed): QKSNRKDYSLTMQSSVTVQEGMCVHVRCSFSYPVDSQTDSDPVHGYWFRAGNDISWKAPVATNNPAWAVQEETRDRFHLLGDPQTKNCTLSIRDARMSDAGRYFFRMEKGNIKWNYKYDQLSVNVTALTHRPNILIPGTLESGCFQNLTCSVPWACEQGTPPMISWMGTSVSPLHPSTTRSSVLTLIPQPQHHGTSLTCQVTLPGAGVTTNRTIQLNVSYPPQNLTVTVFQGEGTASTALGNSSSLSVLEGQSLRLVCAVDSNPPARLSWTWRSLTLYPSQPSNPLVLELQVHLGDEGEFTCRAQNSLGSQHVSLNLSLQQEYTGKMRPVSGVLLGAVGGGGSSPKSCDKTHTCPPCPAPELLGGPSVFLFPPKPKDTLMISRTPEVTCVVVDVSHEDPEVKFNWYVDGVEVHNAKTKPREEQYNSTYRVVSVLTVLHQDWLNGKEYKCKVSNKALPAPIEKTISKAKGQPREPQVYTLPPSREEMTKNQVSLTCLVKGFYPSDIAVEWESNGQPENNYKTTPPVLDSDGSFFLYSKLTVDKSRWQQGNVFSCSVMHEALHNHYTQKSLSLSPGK
T5 sequence (Q9Y336 other isoform, or with tags, fused parts or gaps mutant): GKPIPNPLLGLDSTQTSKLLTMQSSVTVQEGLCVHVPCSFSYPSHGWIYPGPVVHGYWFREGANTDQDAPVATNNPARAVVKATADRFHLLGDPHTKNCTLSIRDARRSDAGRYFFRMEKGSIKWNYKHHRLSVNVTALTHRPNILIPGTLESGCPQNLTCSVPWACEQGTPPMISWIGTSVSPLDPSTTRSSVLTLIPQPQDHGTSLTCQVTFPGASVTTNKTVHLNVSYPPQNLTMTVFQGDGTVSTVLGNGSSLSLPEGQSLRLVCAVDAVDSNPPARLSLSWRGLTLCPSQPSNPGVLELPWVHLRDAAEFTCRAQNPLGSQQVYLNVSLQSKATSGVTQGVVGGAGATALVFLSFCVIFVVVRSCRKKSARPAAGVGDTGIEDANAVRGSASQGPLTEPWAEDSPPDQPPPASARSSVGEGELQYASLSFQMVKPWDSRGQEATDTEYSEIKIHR
T1 sequence (Q9Y336 other isoform, or with tags, fused parts or gaps mutant): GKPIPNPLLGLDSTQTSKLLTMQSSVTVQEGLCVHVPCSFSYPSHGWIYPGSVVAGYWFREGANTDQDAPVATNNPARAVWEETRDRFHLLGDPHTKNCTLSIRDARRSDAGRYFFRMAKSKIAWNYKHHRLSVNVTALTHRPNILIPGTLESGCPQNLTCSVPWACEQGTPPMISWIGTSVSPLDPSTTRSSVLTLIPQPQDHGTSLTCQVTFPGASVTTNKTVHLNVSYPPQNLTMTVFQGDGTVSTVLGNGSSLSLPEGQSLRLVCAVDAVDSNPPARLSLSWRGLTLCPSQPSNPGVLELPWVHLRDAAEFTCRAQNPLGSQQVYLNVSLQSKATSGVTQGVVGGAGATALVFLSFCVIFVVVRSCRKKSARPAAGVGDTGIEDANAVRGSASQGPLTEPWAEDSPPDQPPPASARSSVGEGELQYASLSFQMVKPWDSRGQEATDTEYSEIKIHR
T9 sequence (Q9Y336 other isoform, or with tags, fused parts or gaps mutant): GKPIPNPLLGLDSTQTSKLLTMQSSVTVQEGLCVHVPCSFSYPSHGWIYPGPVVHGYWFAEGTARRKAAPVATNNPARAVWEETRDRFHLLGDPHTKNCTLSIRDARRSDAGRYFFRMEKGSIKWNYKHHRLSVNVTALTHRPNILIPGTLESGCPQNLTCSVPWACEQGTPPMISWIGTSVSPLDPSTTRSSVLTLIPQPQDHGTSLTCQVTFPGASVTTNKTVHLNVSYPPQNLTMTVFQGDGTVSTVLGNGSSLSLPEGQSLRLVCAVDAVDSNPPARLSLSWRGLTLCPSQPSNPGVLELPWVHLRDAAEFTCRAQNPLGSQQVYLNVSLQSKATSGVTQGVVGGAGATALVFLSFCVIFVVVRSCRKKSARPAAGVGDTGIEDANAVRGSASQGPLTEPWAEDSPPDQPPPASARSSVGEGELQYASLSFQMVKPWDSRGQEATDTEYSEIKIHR

B1: Fab.F (Fab of mAbF) (Fab, V domains shown)
VH: QVQLQQSGPEVVRPGVSVKISCKGSGYTFTDYSMHWVKQSHAKSLEWIGVISTYNGNTNYNQKFKGKATMTVDKSSSTAYMELARLTSEDSAIYYCARRGYYGSSSWFGYWGQGTLVTVSA
VL: DIVMTQSQKFMSTSVGDRVSVTCKASQNVGTDVAWYQQKPGQSPEALIYSASYRYSGVPDRFTGSGSGADFTLTISNVQSEDLAEYFCQQYNSFPYTFGGGTKLEIK
For the molecule B1, the binding result with Human Siglec-9 mutant M7 is listed as “binds”; with Human Siglec-9 mutant M2, “binds”; in the assay with Human Siglec-9 mutant M5 it was “binds”; with Human Siglec-9 mutant M6, “binds”; in [1], “no binding”. In addition, the Kd with Siglec-9 Fc protein came to 1 nM. For the same molecule, in the assay with Siglec-9 Fc protein, the koff turned out to be 0.00046 s⁻¹.

B2: mAbA H1L1 (antibody, V domains shown)
VH: QVQLVQSGAEVKKPGSSVKVSCKASGGTFSSYWMHWVRQAPGQGLEWMGEINPSNGHTNYNEKFESRVTITADESTSTAYMELSSLRSEDTAVYYCANGVESYDFDDALDYWGQGTTVTVSS
VL: DIQMTQSPSSLSASVGDRVTITCRASQDINNYLNWYQQKPGKAPKLLIYYTSRLHSGVPSRFSGSGSGTDYTFTISSLQPEDIATYYCQQGNTLPFTFGGGTKVEIK
notes: constant region not specified
In the assay with Human Siglec-9, B2 came in with an EC50 of 0.033 µg/mL.

B3: mAbA H0L0 (antibody, V domains shown)
VH: B2 VH with N98R
VL: B2 VL with Y71F
notes: constant region not specified
For the molecule B3, a half-maximal effect with Human Siglec-9 (EC50) was put at 0.04 µg/mL.

B4: mAbA H3L2 (antibody, V domains shown)
VH: B2 VH with G26Y, G27F, E74R
VL: B2 VL with P44I
notes: constant region not specified
Turning to B4, the EC50 in the assay with Human Siglec-9 is 0.074 µg/mL.

B5: mAbA H2L1 (antibody, V domains shown)
VH: B2 VH with G26Y, G27F
VL: B2 VL
notes: constant region not specified
In the assay with Human Siglec-9, B5 returned an EC50 of 0.029 µg/mL.

B6: mAbA H1L0 (antibody, V domains shown)
VH: B2 VH
VL: B2 VL with Y71F
notes: constant region not specified
As to B6, the EC50 in the assay with Human Siglec-9 is 0.045 µg/mL.

B7: mAbA H0L2 (antibody, V domains shown)
VH: B2 VH with N98R
VL: B2 VL with P44I
notes: constant region not specified
In the assay with Human Siglec-9, B7 yielded an EC50 of 0.034 µg/mL.

B8: mAbA H3L1 (antibody, V domains shown)
VH: B2 VH with G26Y, G27F, E74R
VL: B2 VL
notes: constant region not specified
As for B8, in the assay with Human Siglec-9, the midpoint of the response, the EC50, lay at 0.044 µg/mL.

B9: mAbA H3L0 (antibody, V domains shown)
VH: B2 VH with G26Y, G27F, E74R
VL: B2 VL with Y71F
notes: constant region not specified
For B9, a half-maximal effect with Human Siglec-9 (EC50) was put at 0.12 µg/mL. This EC50 is about 2.7-fold higher than that of the molecule before.

B10: mAbA H1L2 (antibody, V domains shown)
VH: B2 VH
VL: B2 VL with P44I
notes: constant region not specified
On to B10, for which a half-maximal response with Human Siglec-9 (EC50) required 0.037 µg/mL.

B11: mAbA H0L1 (antibody, V domains shown)
VH: B2 VH with N98R
VL: B2 VL
notes: constant region not specified
Take B11: in the assay with Human Siglec-9, the EC50 amounted to 0.013 µg/mL.

B12: mAbA H2L2 (antibody, V domains shown)
VH: B2 VH with G26Y, G27F
VL: B2 VL with P44I
notes: constant region not specified
In the assay with Human Siglec-9, B12 displayed an EC50 of 0.032 µg/mL.

B13: mAbA H2L0 (antibody, V domains shown)
VH: B2 VH with G26Y, G27F
VL: B2 VL with Y71F
notes: constant region not specified
In the assay with Human Siglec-9, B13 returned a concentration for a half-maximal effect (EC50) of 0.034 µg/mL.

B14: Fab.E (Fab of mAbE) (Fab, V domains shown)
VH: DVQLVESGGGLVQPGGSRKLSCAASGFTFSTFGMHWVRQAPEKGLEWVAYISSGSNAIYYADTVKGRFTISRDNPKNTLFLQMTSLRSEDTAMYYCASPGYGAWFAYWGQGTLVTVSA
VL: ENVLTQSPAIMSASPGEKVTMTCRASSSVSSAYLHWYQQKSGASPKLWIYSTSNLASGVPARFSGSGSGTSYSLTISSVEAEDAATYYCQQYSAYPYTFGGGTKLEIK
For B14, the binding result is “binds” in the assay with Human Siglec-9 mutant M7; “binds” with Human Siglec-9 mutant M2; “binds” with Human Siglec-9 mutant M5; “binds” in the assay with Human Siglec-9 mutant M6; “no binding” in assay [1]. The molecule further came in with a Kd with Siglec-9 Fc protein of 1 nM. This molecule also registered a koff with Siglec-9 Fc protein of 0.0019 s⁻¹.

B15: Fab1 (Fab of mAb1) (Fab, V domains shown)
VH: DVQLQESGPGLVKPSQSLSLTCTVTGYSITGGFAWNWIRQFPGNTLEWMGYIGYGGSTSYNPSLNSRISITRDTSKNHFFLQFNSVTTDDSATYYCARGDYLFAYWGQGTLVTVSA
VL: DIVMTQSHKFMSTSVGDRVSITCKASQDVNTAVAWYQQKPGQSPKLLIYSASYRYTGVPDRFTGSGSGTDFTFTISSVQAEDLAVYYCQQHYSTPRTFGGGTKLEIK
For the molecule B15, the Kd with Siglec-7 Fc protein came out at 0.06 nM; with Siglec-9 Fc protein, 0.4 nM. Further, the koff with Siglec-7 Fc protein was 4e-05 s⁻¹; in the assay with Siglec-9 Fc protein it was 0.00016 s⁻¹. Moreover, the binding result in the assay with Human Siglec-9 mutant M7 was “binds”; with Human Siglec-9 mutant M2, “binds”; with Human Siglec-9 mutant M5, “binds”; with Human Siglec-9 mutant M8, “binds”; with Human Siglec-9 mutant M6 it was “binds”; in [1] it was “no binding”.

B16: Fab2 (Fab of mAb2) (Fab, V domains shown)
VH: B15 VH with D1E, D89E
VL: B15 VL
notes: Fab fragment of the antibody
In the assay with Siglec-7 Fc protein, B16 gave a Kd of 0.07 nM and a koff of 4e-05 s⁻¹. Further, in the assay with Siglec-9 Fc protein, the Kd was determined as 0.8 nM and the koff worked out at 0.00017 s⁻¹.

B17: mAbD H1L1 (antibody, V domains shown)
VH: QVQLVQSGSELKKPGASVKVSCKASGYTFTDYSMHWVRQAPGQGLKWMGWIITETGEPTYADDFRGRFVFSLDTSVSTAYLQISSLKAEDTAVYYCARDFDGYWGQGTTVTVSS
VL: DIQMTQSPSSLSASVGDRVTITCRASENIYSYLAWYQQKPGKAPKFLIYNAKTLTEGVPSRFSGSGSGTDFTLTISSLQPEDFATYYCQHHYGFPWTFGGGTKVEIK
notes: constant region not specified
In the case of B17, a half-maximal response with Human Siglec-9 (EC50) required 0.015 µg/mL.

B18: mAbD H0L2 (antibody, V domains shown)
VH: B17 VH with K46E
VL: B17 VL with S63R
notes: constant region not specified
For B18, in the assay with Human Siglec-9, the midpoint of the response, the EC50, lay at 0.02 µg/mL.

B19: mAbD H2L0 (antibody, V domains shown)
VH: B17 VH with Y95F
VL: B17 VL with F46L
notes: constant region not specified
In the assay with Human Siglec-9, B19 registered an EC50 of 0.03 µg/mL.

B20: mAbD H2L2 (antibody, V domains shown)
VH: B17 VH with Y95F
VL: B17 VL with S63R
notes: constant region not specified
Turning to B20, in the assay with Human Siglec-9, the response was half-maximal at 0.021 µg/mL (EC50).

B21: mAbD H1L0 (antibody, V domains shown)
VH: B17 VH
VL: B17 VL with F46L
notes: constant region not specified
In turn, B21 yielded an EC50 with Human Siglec-9 of 0.019 µg/mL.

B22: mAbD H1L2 (antibody, V domains shown)
VH: B17 VH
VL: B17 VL with S63R
notes: constant region not specified
B22 displayed an EC50 with Human Siglec-9 of 0.019 µg/mL.

B23: mAbD H2L1 (antibody, V domains shown)
VH: B17 VH with Y95F
VL: B17 VL
notes: constant region not specified
Regarding B23, in the assay with Human Siglec-9, the EC50 amounted to 0.016 µg/mL.

B24: mAbD H0L1 (antibody, V domains shown)
VH: B17 VH with K46E
VL: B17 VL
notes: constant region not specified
Take B24: the EC50 with Human Siglec-9 came to 0.01 µg/mL. Against the preceding molecule, the EC50 is about 1.6-fold lower.

B25: mAbD H0L0 (antibody, V domains shown)
VH: B17 VH with K46E
VL: B17 VL with F46L
notes: constant region not specified
As for B25, the EC50 with Human Siglec-9 stood at 0.019 µg/mL. This EC50 is about 1.9-fold higher than that of the molecule before.
